In US20150175707:
Numbering of substitutions follows the chain as printed. Names and notes keep the numbering of the source.

Experiments:
[1] = HP-SEC as in Example 20, fraction of peak area; Fc:Fc self-oligomerization
[2] = HP-SEC, 0.1 M Na2SO4/0.1 M sodium phosphate pH 6.8 (Example 23); Fc:Fc self-oligomerization
[3] = HP-SEC as in Example 20; Fc:Fc self-oligomerization
[4] = HP-SEC, 0.1 M Na2SO4/0.1 M sodium phosphate pH 6.8; Fc:Fc self-oligomerization
[5] = HP-SEC, PBS pH 7.4 as mobile phase; Fc:Fc self-oligomerization
[6] = HP-SEC, 0.15 M NaCl/0.1 M citrate pH 6.8; Fc:Fc self-oligomerization
[7] = HP-SEC, 0.15 M NaCl/0.1 M citrate pH 5.0; Fc:Fc self-oligomerization

B1: Fc-RGY (IgG1m(f) Fc fragment with E345R, E430G and S440Y) (protein)
chain: EPKSCDKTHTCPPCPAPELLGGPSVFLFPPKPKDTLMISRTPEVTCVVVDVSHEDPEVKFNWYVDGVEVHNAKTKPREEQYNSTYRVVSVLTVLHQDWLNGKEYKCKVSNKALPAPIEKTISKAKGQPRRPQVYTLPPSREEMTKNQVSLTCLVKGFYPSDIAVEWESNGQPENNYKTTPPVLDSDGSFFLYSKLTVDKSRWQQGNVFSCSVMHGALHNHYTQKYLSLSPGK
fraction monomers (HP-SEC) [1]: approximately 28% monomers
fraction oligomers (HP-SEC) [1]: 72% oligomers distributed over multiple states

B2: IgG1-005-E345R/E430G/S440Y (protein)
chain: ASTKGPSVFPLAPSSKSTSGGTAALGCLVKDYFPEPVTVSWNSGALTSGVHTFPAVLQSSGLYSLSSVVTVPSSSLGTQTYICNVNHKPSNTKVDKRVEPKSCDKTHTCPPCPAPELLGGPSVFLFPPKPKDTLMISRTPEVTCVVVDVSHEDPEVKFNWYVDGVEVHNAKTKPREEQYNSTYRVVSVLTVLHQDWLNGKEYKCKVSNKALPAPIEKTISKAKGQPRRPQVYTLPPSREEMTKNQVSLTCLVKGFYPSDIAVEWESNGQPENNYKTTPPVLDSDGSFFLYSKLTVDKSRWQQGNVFSCSVMHGALHNHYTQKYLSLSPGK
fraction monomeric species (HP-SEC) [2]: 23% of the population eluted as a monomeric species
fraction oligomer (HP-SEC) [2]: a fraction oligomer of 77%
% multimeric (HP-SEC) [3]: IgG1-005-RGY (79.2% multimeric)
fraction monomeric species (HP-SEC) [4]: 21% of the population eluted in a peak observed at the expected elution time for a monomeric species
fraction oligomer (HP-SEC) [4]: a large fraction oligomer which was estimated at 79%
% multimers (HP-SEC) [5]: IgG1-005-RGY (84% multimers)
oligomerization (HP-SEC) [6]: in citrate pH 6.8 the antibody displayed 84% oligomerization
fraction monomeric species (HP-SEC) [7]: >99% of the protein eluting as a monomeric species
fraction multimer (HP-SEC) [7]: The fraction multimer dropped to less than 1%

B3: IgG1-005-E345R/E430G/S440K (protein)
chain: B2 chain with Y323K
% multimers (HP-SEC) [5]: IgG1-005-RGK (2.2% multimers)

B4: IgG1-005-E345R/E430G/Y436I/S440K (protein)
chain: B2 chain with Y319I, Y323K
% multimers (HP-SEC) [5]: IgG1-005-RGIK (1.8% multimers)

B5: IgG1-M1-RGY (C. albicans mannan antibody M1g1 with E345R/E430G/S440Y) (protein)
chain: B2 chain
fraction oligomer (HP-SEC) [3]: IgG1-M1-RGY (74.5%)

B6: IgG1-005-E345R/E430G/K439E/S440Y (protein)
chain: B2 chain with K322E
% multimers (HP-SEC) [5]: IgG1-005-RGEY (2.7% multimers)
